Here are results for two proteins from publication doi:10.1101/2023.11.02.23297943 (medRxiv, 2023).

This series concerns the molecule itself. Description: cross-linking.

B1: mitochondrial single-stranded DNA-binding protein 1 (SSBP1), wild-type recombinant protein (natural protein, human, UniProt Q04837 17-148, looked up)
chain: ESETTTSLVLERSLNRVHLLGRVGQDPVLRQVEGKNPVTIFSLATNEMWRSGDSEVYQLGDVSQKTTWHRISVFRPGLRDVAYQYVKKGSRIYLEGKIDYGEYMDKNNVRRQATTIIADNIIFLSDQTKEKE
With B1, the binding result was “binds”.

B2: SSBP1 p.Arg91Gln mutant, recombinant protein (natural protein, human, UniProt Q04837 17-148, looked up)
chain: ESETTTSLVLERSLNRVHLLGRVGQDPVLRQVEGKNPVTIFSLATNEMWRSGDSEVYQLGDVSQKTTWHRISVFQPGLRDVAYQYVKKGSRIYLEGKIDYGEYMDKNNVRRQATTIIADNIIFLSDQTKEKE
As for B2, the “percent of dimers formed, compared to wild-type” value is 37.4 % of wild-type; the “percent of tetramers formed, compared to wild-type” value was 20.5 % of wild-type; the “percent of trimers formed, compared to wild-type” value is 12.7 % of wild-type.
